How the values were obtained:
[1] = target: CPEB1 ZZ domain (isolated) (Homo sapiens, UniProt Q9BZB8 503-566); assay: NMR titration
[2] = target: T1, CPEB1 RRM12 (tandem RRMs) (Homo sapiens, UniProt Q9BZB8 285-355+361-514, internal_change); assay: NMR titration and solution structure
[3] = target: T1, CPEB1 RRM12 (tandem RRMs); assay: NMR titration
[4] = target: T2, CPEB4 RRM12 (tandem RRMs) (Homo sapiens, UniProt Q17RY0-3 54-256); assay: NMR titration
T2 sequence: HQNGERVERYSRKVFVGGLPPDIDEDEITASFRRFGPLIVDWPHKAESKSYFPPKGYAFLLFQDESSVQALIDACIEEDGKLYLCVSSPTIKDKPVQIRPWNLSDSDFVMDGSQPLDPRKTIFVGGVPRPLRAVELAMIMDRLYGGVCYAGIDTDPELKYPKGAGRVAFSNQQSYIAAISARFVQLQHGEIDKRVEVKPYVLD

[5] = target: T1, CPEB1 RRM12 (tandem RRMs); assay: NMR

**Q.** Does UUUUUAU (ssRNA) [UUUUUAU (consensus CPE)] bind [1]?
**A.** no binding

**Q.** Does UUUUA (ssRNA) bind [2]?
**A.** binds

**Q.** Which results are given for UUUUAU (ssRNA) [UUUUAU (consensus CPE)]?
**A.** binding result [3]: binds; binding result [4]: binds

**Q.** Does CUUUA (ssRNA) bind [5]?
**A.** binds
